Measurements: US20250109201A1 (AGENUS, published 2025)

What was measured:
[1] = molecular target: T1, recombinant human LILRA5/ILT11 (Sino Biological 16059-H08H-100) (human, UniProt A6NI73 42-268); assay: SPR
T1 construct: Bought
From the text: (§1) Irrelevant antibody VRC01 IgG1 N297A was used as a negative isotype control.

[2] = molecular target: T2, recombinant human LILRA2/ILT1 (R&D Systems 9040-T4-050) (human, UniProt Q8N149 24-449); assay: SPR
T2 construct: Bought
From the text: as §1

[3] = molecular target: T3, recombinant human LILRB4/ILT3 (Sino Biological 16742-H08H) (human, UniProt Q8NHJ6 22-259); assay: SPR
T3 construct: Bought
From the text: as §1

[4] = molecular target: T4, recombinant human LILRA6/ILT8 (Sino Biological 29813-H08H-50) (human, UniProt Q6PI73 24-447); assay: SPR
T4 construct: Bought
T4 sequence (Q6PI73 24-447 limits assumed): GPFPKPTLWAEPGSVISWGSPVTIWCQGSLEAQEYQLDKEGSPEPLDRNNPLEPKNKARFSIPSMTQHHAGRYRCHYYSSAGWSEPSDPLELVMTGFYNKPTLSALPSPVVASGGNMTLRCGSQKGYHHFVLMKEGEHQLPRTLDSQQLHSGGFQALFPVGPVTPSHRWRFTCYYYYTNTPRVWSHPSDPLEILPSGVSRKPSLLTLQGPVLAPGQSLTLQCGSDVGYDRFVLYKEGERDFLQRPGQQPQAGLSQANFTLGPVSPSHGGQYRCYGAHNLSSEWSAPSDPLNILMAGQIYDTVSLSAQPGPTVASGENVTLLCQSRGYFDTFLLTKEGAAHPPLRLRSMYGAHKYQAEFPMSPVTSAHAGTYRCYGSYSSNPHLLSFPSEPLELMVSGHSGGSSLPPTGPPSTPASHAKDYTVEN
From the text: as §1

[5] = molecular target: T5, recombinant human LILRB5/LIR-8 (Sino Biological 17221-H08H-100) (human, UniProt O75023 24-458); assay: SPR
T5 construct: Bought
T5 sequence (O75023 24-458 limits assumed): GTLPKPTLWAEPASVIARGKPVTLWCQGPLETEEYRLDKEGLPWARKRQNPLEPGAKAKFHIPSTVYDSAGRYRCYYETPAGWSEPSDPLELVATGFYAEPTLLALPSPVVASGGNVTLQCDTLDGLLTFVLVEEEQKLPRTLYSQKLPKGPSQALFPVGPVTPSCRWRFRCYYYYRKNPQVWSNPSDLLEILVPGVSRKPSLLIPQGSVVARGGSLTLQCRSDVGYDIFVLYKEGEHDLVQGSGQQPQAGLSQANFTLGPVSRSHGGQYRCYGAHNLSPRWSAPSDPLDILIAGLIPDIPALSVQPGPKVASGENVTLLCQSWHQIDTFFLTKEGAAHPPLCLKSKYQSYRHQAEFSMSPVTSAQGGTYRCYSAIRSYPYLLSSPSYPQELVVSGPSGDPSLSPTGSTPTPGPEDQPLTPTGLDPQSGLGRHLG
From the text: as §1

[6] = molecular target: T6, recombinant human LILRB3/ILT5 (R&D Systems 9159-T5-050) (human, UniProt O75022 24-443); assay: SPR
T6 construct: Bought
From the text: as §1

[7] = molecular target: T7, recombinant human LILRA4/ILT7 (Sino Biological 16058-H08H-50) (human, UniProt P59901 24-446); assay: SPR
T7 construct: Bought
T7 sequence (P59901 24-446 limits assumed): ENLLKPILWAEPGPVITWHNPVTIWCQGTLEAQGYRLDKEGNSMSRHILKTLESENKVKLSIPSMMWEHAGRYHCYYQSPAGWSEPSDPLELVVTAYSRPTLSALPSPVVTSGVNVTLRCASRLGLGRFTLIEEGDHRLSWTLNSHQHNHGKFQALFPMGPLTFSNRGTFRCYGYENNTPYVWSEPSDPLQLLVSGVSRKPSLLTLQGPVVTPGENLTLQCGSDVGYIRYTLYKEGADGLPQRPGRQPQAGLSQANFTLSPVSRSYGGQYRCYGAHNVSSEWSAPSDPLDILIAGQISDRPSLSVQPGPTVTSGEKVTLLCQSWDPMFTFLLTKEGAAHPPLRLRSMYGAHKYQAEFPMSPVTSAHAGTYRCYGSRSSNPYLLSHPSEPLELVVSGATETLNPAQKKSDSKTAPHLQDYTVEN
From the text: as §1

[8] = molecular target: full-length ILT2 expressed on Jurkat cells (human, UniProt Q8NHL6 24-650); assay: cell-based or functional assay
full-length ILT2 expressed on Jurkat cells, sequence (Q8NHL6 24-650): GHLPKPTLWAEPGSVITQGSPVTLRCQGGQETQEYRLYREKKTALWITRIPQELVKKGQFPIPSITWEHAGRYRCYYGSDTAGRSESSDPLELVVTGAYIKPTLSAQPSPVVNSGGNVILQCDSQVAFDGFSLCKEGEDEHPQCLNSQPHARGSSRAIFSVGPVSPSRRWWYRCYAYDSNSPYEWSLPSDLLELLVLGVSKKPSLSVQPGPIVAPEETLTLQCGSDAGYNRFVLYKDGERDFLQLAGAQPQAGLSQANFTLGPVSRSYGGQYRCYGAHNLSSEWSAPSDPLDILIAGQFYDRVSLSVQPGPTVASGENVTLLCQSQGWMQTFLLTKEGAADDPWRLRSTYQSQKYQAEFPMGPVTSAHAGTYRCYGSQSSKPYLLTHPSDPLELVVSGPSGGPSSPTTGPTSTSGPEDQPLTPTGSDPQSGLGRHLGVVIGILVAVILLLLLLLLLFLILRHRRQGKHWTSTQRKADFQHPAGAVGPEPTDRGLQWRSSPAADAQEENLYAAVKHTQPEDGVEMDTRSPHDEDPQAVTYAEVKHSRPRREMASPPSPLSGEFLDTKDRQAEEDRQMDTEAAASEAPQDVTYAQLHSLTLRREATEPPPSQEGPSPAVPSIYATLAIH

[9] = molecular target: T8, human ILT2 extracellular and transmembrane domains expressed on CHO cells (human, UniProt Q8NHL6 24-482, limits assumed); assay: flow cytometry, CHO cells with low human ILT2
T8 construct: domain: extracellular and transmembrane domains; which one is told under assay; also called CHO cells expressing human ILT2 (relatively low or relatively high level); CHO-ILT2 cells
T8 sequence (Q8NHL6 24-482 limits assumed): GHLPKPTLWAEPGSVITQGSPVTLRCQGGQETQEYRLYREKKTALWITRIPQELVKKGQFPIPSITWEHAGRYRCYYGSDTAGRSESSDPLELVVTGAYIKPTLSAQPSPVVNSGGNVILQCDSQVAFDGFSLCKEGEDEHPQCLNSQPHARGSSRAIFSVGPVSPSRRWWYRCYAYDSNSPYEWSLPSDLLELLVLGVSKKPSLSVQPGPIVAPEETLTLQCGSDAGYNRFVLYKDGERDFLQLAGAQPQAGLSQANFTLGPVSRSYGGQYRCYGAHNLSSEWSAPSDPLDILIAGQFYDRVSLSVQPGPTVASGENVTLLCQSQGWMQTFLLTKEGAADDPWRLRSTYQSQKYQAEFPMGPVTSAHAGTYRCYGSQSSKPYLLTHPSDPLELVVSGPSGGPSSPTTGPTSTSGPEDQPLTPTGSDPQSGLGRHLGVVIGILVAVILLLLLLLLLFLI
Procedure: (§2) CHO cells expressing relatively high and low levels of human ILT2 were seeded in a 96-well U-bottom tissue culture plate at a density of 2×10⁵ cells per well in 50 μL of PBS supplemented with 0.5% BSA, 1 mM EDTA and 0.05% sodium azide (FACS Buffer). The cells were incubated for 30 minutes at 4° C. with 50 μL of a series dilution of anti-ILT2 antibodies or isotype control (VRC01 IgG₄) at concentrations from 10 μg/mL to 0.2 ng/mL in FACS Buffer.
(§3) For antibody staining, the cells were washed three times with cold FACS Buffer and resuspended in FACS Buffer containing a FITC-conjugated mouse anti-human IgG₄ antibody (Southern Biotech/9190-02) at a final concentration of […]. After a 30-minute incubation in the dark at 4° C., the cells were washed three times and analyzed as above.

[10] = molecular target: T9, ECD-His tagged human ILT2 haplotype PE01 (human, UniProt Q8NHL6 24-458); assay: SPR, LILRA and LILRB family panel
T9 construct: also called Human ILT2 PE01 ECD; LILRB1/ILT2 PE01; not shown: His tag
T9 sequence (Q8NHL6 24-458): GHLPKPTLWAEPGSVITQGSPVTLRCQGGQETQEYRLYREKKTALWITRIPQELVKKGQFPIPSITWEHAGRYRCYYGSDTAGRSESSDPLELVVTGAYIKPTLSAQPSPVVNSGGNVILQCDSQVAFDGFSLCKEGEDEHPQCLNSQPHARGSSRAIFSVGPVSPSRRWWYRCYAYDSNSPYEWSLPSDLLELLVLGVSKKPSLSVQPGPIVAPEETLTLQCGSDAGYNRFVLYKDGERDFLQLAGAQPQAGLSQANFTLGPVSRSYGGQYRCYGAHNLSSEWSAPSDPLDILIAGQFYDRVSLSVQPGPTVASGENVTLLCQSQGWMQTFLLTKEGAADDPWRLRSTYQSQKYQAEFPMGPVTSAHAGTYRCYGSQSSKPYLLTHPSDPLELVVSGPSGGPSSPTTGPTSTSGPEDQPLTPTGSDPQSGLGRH
From the text: as §1

[11] = molecular target: T10, recombinant human LILRA3/ILT6 (Sino Biological 13549-H08H-100) (human, UniProt Q8N6C8 24-439); assay: SPR, LILRA and LILRB family panel
T10 construct: Bought
T10 sequence (Q8N6C8 24-439 limits assumed): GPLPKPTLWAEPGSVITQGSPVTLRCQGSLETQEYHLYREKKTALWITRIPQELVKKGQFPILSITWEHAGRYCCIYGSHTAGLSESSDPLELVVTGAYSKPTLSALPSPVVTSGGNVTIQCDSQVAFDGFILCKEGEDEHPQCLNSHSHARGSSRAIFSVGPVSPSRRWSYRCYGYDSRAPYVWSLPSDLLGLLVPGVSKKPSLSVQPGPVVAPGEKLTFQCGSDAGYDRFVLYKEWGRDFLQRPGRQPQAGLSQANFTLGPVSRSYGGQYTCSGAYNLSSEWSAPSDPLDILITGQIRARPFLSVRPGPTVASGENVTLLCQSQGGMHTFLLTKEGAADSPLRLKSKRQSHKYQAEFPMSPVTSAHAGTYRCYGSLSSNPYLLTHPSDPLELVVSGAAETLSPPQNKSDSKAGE
From the text: as §1

[12] = molecular target: T11, recombinant human LILRA1/LIR-6 (Sino Biological 17220-H08H-100) (human, UniProt O75019 17-461); assay: SPR, LILRA and LILRB family panel
T11 construct: Bought
T11 sequence (O75019 17-461 limits assumed): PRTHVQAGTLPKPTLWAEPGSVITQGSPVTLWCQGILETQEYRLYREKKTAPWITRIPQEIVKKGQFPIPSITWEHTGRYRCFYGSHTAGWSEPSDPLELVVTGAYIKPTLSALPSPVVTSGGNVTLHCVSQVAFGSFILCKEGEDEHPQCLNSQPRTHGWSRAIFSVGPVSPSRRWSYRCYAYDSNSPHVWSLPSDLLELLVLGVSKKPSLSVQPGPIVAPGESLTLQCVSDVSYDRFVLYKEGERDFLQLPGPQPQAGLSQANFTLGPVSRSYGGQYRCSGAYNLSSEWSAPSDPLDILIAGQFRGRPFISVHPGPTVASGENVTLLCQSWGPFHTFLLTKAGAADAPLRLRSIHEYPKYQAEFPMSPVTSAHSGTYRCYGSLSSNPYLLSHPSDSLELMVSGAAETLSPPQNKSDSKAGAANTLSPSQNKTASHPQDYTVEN
From the text: as §1

[13] = molecular target: T8, human ILT2 extracellular and …; assay: flow cytometry, CHO cells with high human ILT2
Procedure: as §2, §3

T2 sequence (Q8N149 24-449 limits assumed): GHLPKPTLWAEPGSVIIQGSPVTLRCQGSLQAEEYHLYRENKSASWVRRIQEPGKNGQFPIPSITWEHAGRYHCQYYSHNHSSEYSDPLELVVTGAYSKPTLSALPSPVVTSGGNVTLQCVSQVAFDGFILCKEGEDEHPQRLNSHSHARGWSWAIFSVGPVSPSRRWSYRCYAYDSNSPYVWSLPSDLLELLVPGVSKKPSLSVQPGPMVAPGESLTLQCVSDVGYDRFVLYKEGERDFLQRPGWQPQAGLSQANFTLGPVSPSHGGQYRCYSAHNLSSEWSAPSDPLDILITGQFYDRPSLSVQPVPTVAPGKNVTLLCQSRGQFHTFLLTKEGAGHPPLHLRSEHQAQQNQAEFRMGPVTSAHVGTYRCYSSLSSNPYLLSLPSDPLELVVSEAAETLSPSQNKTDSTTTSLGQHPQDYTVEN
T1 sequence (A6NI73 42-268 limits assumed): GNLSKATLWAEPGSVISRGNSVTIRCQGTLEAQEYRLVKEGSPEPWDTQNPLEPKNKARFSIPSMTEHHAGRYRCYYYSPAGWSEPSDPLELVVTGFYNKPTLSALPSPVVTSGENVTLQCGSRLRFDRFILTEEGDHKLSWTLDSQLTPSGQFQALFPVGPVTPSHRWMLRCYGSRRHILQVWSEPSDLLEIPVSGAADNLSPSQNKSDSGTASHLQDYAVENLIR

binding result [1]: no binding
binding result [2]: no binding
binding result [3]: no binding
binding result [4]: no binding
binding result [5]: no binding
binding result [6]: no binding
binding result [7]: no binding
FcγRIIIa-NFAT luciferase signaling, EC50 [8]: 0.43 µg/mL
EC50 [9]: 0.019 µg/mL
Kd [10]: 10 nM
Kd [11]: 24 nM
Kd [12]: 21 nM
EC50 [13]: 0.155 µg/mL
B1: 15G8 (Reference antibody) (antibody, V domains shown)
VH: DVQLQGSGPGLVKPSETLSLTCSVTGYSITSGYYWNWIRQFPGKKLEWMGYISYDGSNNYNPSLKNRITISRDTSKNQFSLKLNSVTAADTATYYCAHGYSYYYAMDAWGQGTSVTVSS
VL: DIQMTQSPSSLSASVGDRVTITCRTSQDISNYLNWYQQKPGKAVKLLISYTSRLHSGVPSRFSGSGSGTDYTLTISSLQPEDFATYYCQQGNTLPTFGQGTKLEIK
